Results on one substance are retold here after patent publication US20050244819.

In the data set the test system is beta-Gal^PR, engineered E. coli beta-galactosidase with the HIV p6/PR cleavage site decapeptide inse [β-galactosidase: P00722].

For the substance “TF-PR^D25N, HIV protease precursor with the D25N mutation at the catalytic residue Asp25”, the β-galactosidase activity worked out at 0.178 µmol/min/mg.
